Results as given in patent US5541078.

Molecular target: synthetic peptide 89-122 of Eg 6 (Echinococcus granulosus)
Experiment: ELISA on bound peptide, ascites diluted to 1/100 (control)

“myeloma ascites (SP2/0) (polyclonal serum or antibody)” gave a mean of the optical densities (optical density) of 0.12.
